This is an account of results in patent US20250122539A1, “LARGE SCALE PRODUCTION OF DIVARIN, DIVARINIC ACID AND OTHER ALKYL RESORCINOLS BY FERMENTATION” (priority 2021, published 2025).

Data set [1] in a line: Partitioning of olivetolic acid between organic overlay and aqueous culture phase (shake flask, HPLC). It counts as physicochemical. The following applies: YP + 2% galactose culture. The protocol: Precultures of LSC3-2 and LSC3-18 were inoculated from YPD streak plates and grown in 30 ml of YP+2% (w/v) glucose in baffled 250 ml shake flasks for approximately 18 hours overnight at 30° C. with 200 rpm shaking. Baffled 250 ml shake flasks containing 30 mL of YP+2% (w/v) galactose, 5 mL of IPM or diethyl sebacate, and 0.04% (w/v) hexanoic acid, were inoculated with 1 mL of preculture and grown for at 30° C. with 200 rpm shaking. After 24 and 48 hours, samples of cell culture broth plus overlay were sampled into microcentrifuge tubes and stored at −20° C. at least overnight. Sample tubes were thawed and aqueous sample and overlay sample were pipetted into plates for HPLC analysis. Overlay samples were diluted 1:1 v/v with methanol in the HPLC plate prior to analysis.
Total olivetol equivalents are defined as the concentration of olivetol in mg/L, plus the concentration of olivetolic acid in mg/L multiplied by the ratio of the molecular weight of olivetol to olivetolic acid.

Data set [2] is described as follows: Partitioning of divarinic acid and divarin into organic solvent overlays (96 well deepwell plate, HPLC). It counts as physicochemical. The following applies: compared with olivetolic acid and olivetol. The protocol:
Several monoester and one diester overlay candidate were compared to IPM for production of divarinic acid and divarin. LSC3-13 precultures were inoculated from YPD streak plates and grown in 300 μL Delft medium+0.79 g/L complete supplement mixture (CSM) (ForMedium, Norfolk, UK)+2% (w/v) glucose in round-bottom square well 96 well deepwell plates for approximately 18 hours overnight at 30° C. with 950 rpm shaking in an Infors plate shaker. 96 well deepwell plate wells containing 300 μL of Delft medium+CSM+2% (w/v) glucose, 60 μL of different overlay solvents, and 0.08% (w/v) butyric acid, were inoculated with 10 μL of preculture and grown for 30° C. with 950 rpm shaking. After 48 hours, the aqueous layer and overlay were sampled on a Bravo automated liquid handling platform (Agilent) and samples from the aqueous and organic overlay phases were subjected to HPLC analysis to measure divarinic acid and divarin production.

The test system of data set [3] is butyric acid. Briefly: Two plasmid screening system for relative AAE activity, butyric acid feeding. The following applies: for Divarin / Divarinic acid: average production, LSC3-297/pLOA-049 plus AAE plasmid, Delft medium pH 5.5 with 150 mM MES, 9.08 mM butyric acid, 48 hours; for activity as butyryl-CoA synthetases for divarin and divarinic acid production: over CsAAE1. Format: cell-based, Saccharomyces cerevisiae. The text has this: (§1) In order to perform in vivo screening in Saccharomyces cerevisiae for acyl activating enzyme (AAE) variants with enhanced activity and/or expression, a two plasmid screening system was employed to generate an artificial bottleneck in AAE activity. This bottleneck was generated by natural copy number variation of the two plasmids, with a multi-copy 2 micron episomal plasmid, pLOA-049, harboring an olivetol synthase homologue from C. sativa (CsTKS) fused with a T2A self-cleaving peptide (Kearsey et al., FEBS J. 287:1511-1524, 2020) to a gene encoding olivetol acid cyclase from C. sativa (CsOAC), and a lower copy centromeric plasmid with an autonomous replicating sequence (CEN/ARS) harboring different acyl activating enzymes/acyl-CoA synthetases from different organisms. Markers employed on the 2 micron plasmid were orotidine-5′-phosphate decarboxylase from S. cerevisiae (URA3) and on the CEN/ARS plasmid, the multifunctional histidine biosynthesis gene HIS4 from S. cerevisiae. The cassette architecture in the plasmids was based on integrated cassettes in production strain LSC3-2, with a pGAL1-10 bidirectional promoter driving expression of CsTKS and CsOAC from pGAL1 with a S. cerevisiae CYC1 terminator, and insulated downstream of pGAL10 by a S. cerevisiae GRE3 terminator. Likewise on the CEN/ARS plasmid, a bidirectional pGAL1-10 promoter drives expression of CsAAE1 from pGAL10 with a S. cerevisiae GRE3 terminator, and is insulated downstream of pGAL1 by a S. cerevisiae CYC1 terminator.
(§2) To screen activity of AAE variants, first a CEN/ARS containing plasmid expressing AAEs co-transformed with the 2 micron plasmid expressing CsTKS translationally fused to CsOAC via the T2A self-cleaving peptide into strain LSC3-297 using the transformation method described by Gietz and Schiestl (Nat. Protocols 2:31-34, 2007). Double plasmid transformants were selected on YNB agar with 2% (w/v) glucose and CSM minus histidine and minus uracil (CSM-His-Ura, Sunrise Science Products) and grown in a 30° C. incubator for approximately 48 hours or at room temperature for approximately 72 hours. Individual colonies were picked into wells of 96 deepwell plates containing 0.3 mL per well of Delft medium with 2% (w/v) glucose and 0.75 g/L CSM-His-Ura. Delft medium base contains (per liter solution) 7.5 g ammonium sulfate, 14.4 g potassium phosphate monobasic (added from a 1 M stock solution adjusted to pH 6.5 with sodium hydroxide), 0.5 g magnesium sulfate heptahydrate, 3.6 mL of a trace metal solution (consisting of 130 g/L citric acid monohydrate, 0.574 g/L copper (II) sulfate pentahydrate, 8.07 g/L iron (III) chloride hexahydrate, 0.5 g/L boric acid, 0.333 g/L manganese (II) chloride, 0.2 g/L sodium molybdate, and 4.67 g/L zinc sulfate heptahydrate), and 1.0 ml of a vitamin solution (0.008 g/L biotin, 1.6 g/L calcium pantothenate, 0.008 g/L folic acid, 8 g/L myo-inositol, 1.6 g/L nicotinic acid, 0.8 g/L p-aminobenzoic acid, 1.6 g/L pyridoxal hydrochloride, 0.8 g/L riboflavin, 1.6 g/L thiamine hydrochloride, adjusted to pH […] with sodium hydroxide). Plates were grown for 16-24 hours at 30° C. in a plate shaker incubator maintained at 80% relative humidity and 900 rpm shaking (3 mm diameter throw). Ten microliters of preculture was then used to inoculate wells of 96 deepwell plates containing 0.3 mL per well of Delft medium with 2% (w/v) glucose, 0.75 g/L CSM-His-Ura, either 9.08 mM butyric acid or 3.44 mM hexanoic acid, and for divarin/divarinic acid, additionally 150 mM 2-(N-morpholino) ethanesulfonic acid (MES) at pH 5.5 and with the additional modification of the 1 M potassium phosphate monobasic stock in the Delft medium base also adjusted to pH 5.5 (for olivetol/olivetolic acid production from hexanoic acid, no MES was added and potassium phosphate monobasic solution used in the Delft medium base was at pH 6.5). […]

Data set [4] relates to hexanoic acid. Nature of the data set: Two plasmid screening system for relative AAE activity, hexanoic acid feeding. Format: cell-based, Saccharomyces cerevisiae. The note with it: for Olivetol / Olivetolic acid: average production, LSC3-297/pLOA-049 plus AAE plasmid, Delft medium pH 6.5, 3.44 mM hexanoic acid, 48 hours.
Source text: as §1, §2

As for `CCCCCc1cc(O)cc(O)c1C(=O)O` [OA, olivetolic acid], the “partitioning between overlay and aqueous phase” value in data set [1] (IPM overlay) was “partitioned between the IPM and aqueous phases”; in data set [1] (diethyl sebacate overlay), “entirely partitioned into diethyl sebacate”.
As to `CCCc1cc(O)cc(O)c1` [divarin, 1,3-dihydroxy-5-propylbenzene], the “partitioning into monoester overlays” value in data set [2] is “partition less effectively”.
Still for that read-out and setting: the result for `CCCc1cc(O)cc(O)c1C(=O)O` [divarinic acid, 2,4-dihydroxy-6-propylbenzoic acid] reads “partition less effectively”.

B1: AtAAE7: acyl activating enzyme 7 from Arabidopsis thaliana (Uniprot Q8VZF1), C-terminal peroxisomal targeting sequence removed, SEQ ID NO: 9 (protein, listed as Arabidopsis thaliana)
chain: MAATKWRDIDDLPKIPANYTALTPLWFLDRAAVVHPTRKSVIHGSREYTWRQTYDRCRRLASALADRSIGPGSTVAIIAPNIPAMYEAHFGVPMCGAVLNCVNIRLNAPTVAFLLSHSQSSVIMVDQEFFTLAEDSLRLMEEKAGSSFKRPLLIVIGDHTCAPESLNRALSKGAIEYEDFLATGDPNYPWQPPADEWQSIALGYTSGTTASPKGVVLHHRGAYIMALSNPLIWGMQDGAVYLWTLPMFHCNGWCFPWSLAVLSGTSICLRQVTAKEVYSMIAKYKVTHFCAAPVVLNAIVNAPKEDTILPLPHTVHVMTAGAAPPPSVLFSMNQKGFRVAHTYGLSETYGPSTVCAWKPEWDSLPPETQAKLNARQGVRYTGMEQLDVIDTQTGKPVPADGKTAGEIVFRGNMVMKGYLKNPEANKETFAGGWFHSGDIAVKHPDNYIEIKDRSKDVIISGGENISSVEVENVVYHHPAVLEASVVARPDERWQESPCAFVTLKSDYEKHDQNKLAQDIMKFCREKLPAYWVPKSVVFGPLPKTATGKIQKHILRTKAKEMGPVPR
Take B1: in data set [3], the Divarin turned out to be 7.18 mg/L; the Divarinic acid came to 5.63 mg/L; the “activity as butyryl-CoA synthetases for divarin and divarinic acid production” value is listed as “several-fold activity improvements”. Further, in data set [4], the Olivetol amounted to 0.74 mg/L and the Olivetolic acid came to 1.60 mg/L.

B2: CsAAE1: Cannabis sativa acyl activating enzyme 1 (SEQ ID NO: 4), codon-optimized for S. cerevisiae, on plasmid pLOA-059 (protein, listed as Cannabis sativa)
chain: MGKNYKSLDSVVASDFIALGITSEVAETLHGRLAEIVCNYGAATPQTWINIANHILSPDLPFSLHQMLFYGCYKDFGPAPPAWIPDPEKVKSTNLGALLEKRGKEFLGVKYKDPISSFSHFQEFSVRNPEVYWRTVLMDEMKISFSKDPECILRRDDINNPGGSEWLPGGYLNSAKNCLNVNSNKKLNDTMIVWRDEGNDDLPLNKLTLDQLRKRVWLVGYALEEMGLEKGCAIAIDMPMHVDAVVIYLAIVLAGYVVVSIADSFSAPEISTRLRLSKAKAIFTQDHIIRGKKRIPLYSRVVEAKSPMAIVIPCSGSNIGAELRDGDISWDYFLERAKEFKNCEFTAREQPVDAYTNILFSSGTTGEPKAIPWTQATPLKAAADGWSHLDIRKGDVIVWPTNLGWMMGPWLVYASLLNGASIALYNGSPLVSGFAKFVQDAKVTMLGVVPSIVRSWKSTNCVSGYDWSTIRCFSSSGEASNVDEYLWLMGRANYKPVIEMCGGTEIGGAFSAGSFLQAQSLSSFSSQCMGCTLYILDKNGYPMPKNKPGIGELALGPVMFGASKTLLNGNHHDVYFKGMPTLNGEVLRRHGDIFELTSNGYYHAHGRADDTMNIGGIKISSIEIERVCNEVDDRVFETTAIGVPPLGGGPEQLVIFFVLKDSNDTTIDLNQLRLSFNLGLQKKLNPLFKVTRVVPLSSLPRTATNKIMRRVLRQQFSHFE
As for B2, in data set [3], the Divarin amounted to 1.58 mg/L and the Divarinic acid is recorded as 1.51 mg/L. For the same molecule, in data set [4], the Olivetol was 2.61 mg/L and the Olivetolic acid was found to be 2.99 mg/L. In addition, the “activity as a hexanoyl-CoA synthetase for olivetol and olivetolic acid production” value in data set [4] (out of the tested AAE sequences) is reported as “highest activity”.

B3: At4CLL6: 4-coumarate--CoA ligase-like 6 from Arabidopsis thaliana (Uniprot Q84P24), SEQ ID NO: 11 (protein, listed as Arabidopsis thaliana)
chain: MAATHLHIPPNPKTQTSHQNPPFWFSSKTGIYTSKFPSLHLPVDPNLDAVSALFSHKHHGDTALIDSLTGFSISHTELQIMVQSMAAGIYHVLGVRQGDVVSLVLPNSVYFPMIFLSLISLGAIVTTMNPSSSLGEIKKQVSECSVGLAFTSTENVEKLSSLGVSVISVSESYDFDSIRIENPKFYSIMKESFGFVPKPLIKQDDVAAIMYSSGTTGASKGVLLTHRNLIASMELFVRFEASQYEYPGSSNVYLAALPLCHIYGLSLFVMGLLSLGSTIVVMKRFDASDVVNVIERFKITHFPVVPPMLMALTKKAKGVCGEVFKSLKQVSSGAAPLSRKFIEDFLQTLPHVDLIQGYGMTESTAVGTRGFNSEKLSRYSSVGLLAPNMQAKVVDWSSGSFLPPGNRGELWIQGPGVMKGYLNNPKATQMSIVEDSWLRTGDIAYFDEDGYLFIVDRIKEIIKYKGFQIAPADLEAVLVSHPLIIDAAVTAAPNEECGEIPVAFVVRRQETTLSEEDVISYVASQVAPYRKVRKVVMVNSIPKSPTGKILRKELKRILTNSVS
With B3, in data set [3], the Divarin is reported as 5.96 mg/L; the Divarinic acid is reported as 5.24 mg/L; the “activity as butyryl-CoA synthetases for divarin and divarinic acid production” value is “several-fold activity improvements”. Further, in data set [4], the Olivetol was found to be 0.86 mg/L and the Olivetolic acid turned out to be 0.91 mg/L.
